Literature values, collected in PMC7527559.
Read-outs that look alike come from different tables or passages of the source.

What was measured:
[1] = target: RNA polymerase (Escherichia coli) (UniProt P0A7Z4)
[2] = target: RNA polymerase (Escherichia coli) (UniProt P0A7Z4); remark: listed apart in the source

Chain of GreA (P0A6W5 whole entry): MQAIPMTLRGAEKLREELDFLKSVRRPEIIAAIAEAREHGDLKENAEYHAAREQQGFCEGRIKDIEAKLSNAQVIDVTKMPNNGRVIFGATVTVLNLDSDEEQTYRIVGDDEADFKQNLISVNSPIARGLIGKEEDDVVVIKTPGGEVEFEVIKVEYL
Chain of DksA (P0ABS1 whole entry): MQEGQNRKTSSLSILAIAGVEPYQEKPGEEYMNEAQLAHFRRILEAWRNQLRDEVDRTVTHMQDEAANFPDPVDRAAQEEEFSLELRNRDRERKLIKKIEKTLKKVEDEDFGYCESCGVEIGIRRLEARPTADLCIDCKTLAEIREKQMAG

Kd [1] | Kd [2] | Substance
100 nM |  | DksA (from UniProt P0ABS1)
 | 800 nM | GreA (from UniProt P0A6W5)
